Series [1] deals with the molecule itself. Kind of series: SEC; HiLoad 16/600 Superdex 75pg, last step of purification, sample dialysed in buffer A (50 mM HEPES pH 7.5, 30 mM NaCl); profile not shown. (In gel filtration, larger molecules generally elute earlier.)
Series [2] concerns the molecule itself. Kind of series: crystal structure; X-ray, 2.55 A, space group P2(1)22(1), four homodimers (eight subunits) in the asymmetric unit; crystals from 2.0-2.2 M ammonium sulfate, 100 mM bicine pH 9.0, with 20 mM beta-mercaptoethanol, 20 C.

B1: His6-tag human thymidylate synthase (HT-hTS), wild type (enzyme, UniProt P04818 1-313, looked up)
chain: MPVAGSELPRRPLPPAAQERDAEPRPPHGELQYLGQIQHILRCGVRKDDRTGTGTLSVFGMQARYSLRDEFPLLTTKRVFWKGVLEELLWFIKGSTNAKELSSKGVKIWDANGSRDFLDSLGFSTREEGDLGPVYGFQWRHFGAEYRDMESDYSGQGVDQLQRVIDTIKTNPDDRRIIMCAWNPRDLPLMALPPCHALCQFYVVNSELSCQLYQRSGDMGLGVPFNIASYALLTYMIAHITGLKPGDFIHTLGDAHIYLNHIEPLKIQLQREPRPFPKLRILRKVEKIDDFKAEDFQIEGYNPHPTIKMEMAV
notes: human thymidylate synthase (TS, EC 2.1.1.45); The non-cleavable N-terminal His6-tag comes from the pQE80L plasmid; also called wild-type hTS; human TS; not shown: His6, N-terminal, kept
Usually stoichiometry N stands for a count of units in the complex or per binding partner. For B1, the “stoichiometry N” value in series [1] came out at 2.

B2: His6-tag human thymidylate synthase variant Q62R (HT-hTS Q62R) (enzyme, UniProt P04818 1-313, looked up)
chain: MPVAGSELPRRPLPPAAQERDAEPRPPHGELQYLGQIQHILRCGVRKDDRTGTGTLSVFGMRARYSLRDEFPLLTTKRVFWKGVLEELLWFIKGSTNAKELSSKGVKIWDANGSRDFLDSLGFSTREEGDLGPVYGFQWRHFGAEYRDMESDYSGQGVDQLQRVIDTIKTNPDDRRIIMCAWNPRDLPLMALPPCHALCQFYVVNSELSCQLYQRSGDMGLGVPFNIASYALLTYMIAHITGLKPGDFIHTLGDAHIYLNHIEPLKIQLQREPRPFPKLRILRKVEKIDDFKAEDFQIEGYNPHPTIKMEMAV
modifications: Cys195 modified as S,S-(2-hydroxyethyl)thiocysteine (CME195) in the crystal, by reaction with beta-mercaptoethanol
notes: human thymidylate synthase (TS, EC 2.1.1.45) with Gln62 replaced by arginine; plasmid pQE80L-hTS-Q62R made by site-directed mutagenesis of pQE80L-hTS; Non-cleavable N-terminal His6-tag (twelve residues belong to the tag); in the crystal the first twenty-five N-terminal residues and the tag are not traced; also called Q62R variant; not shown: His6, N-terminal, kept
As for B2, the binding result in series [2] is on record as “binds”.

The record behind these values is PMC6523895, “Evidence of Destabilization of the Human Thymidylate Synthase (hTS) Dimeric Structure Induced by the Interface Mutation Q62R” (Biomolecules, 2019).
